We go through three molecules from patent publication US20200079848A1 (Five Prime, published 2020).

The target in assay [1] is T1, human ILT4 (hILT4) expressed on cells (human, UniProt Q8N423 22-597).
T1 construct: hILT4 on transfected CHO or 293T cells, or native on human monocytes and macrophages; also called LILRB2
As to the kind of experiment: antibody titration flow cytometry binding assay on transfected cells, nonlinear regression.

Another assay addresses T2, human LILRA1 (human, UniProt O75019 17-489).
T2 construct: whole, on cells; also called hLILRA1; LIRA1
Description: flow cytometry, 293T transfectants, antibody 20 µg/ml; stacked histograms, control: parental cells. The procedure: (§1) Individual ILT family members were overexpressed in 293T cells. Each transfectant was stained with 20 μg/ml of anti-ILT4 antibodies followed by 1 μg/ml of anti-human IgG secondary mAb. Binding of the antibodies to each transfectant was measured by flow cytometry.

The target of another assay is T3, human LILRA2 (human, UniProt Q8N149 24-483).
T3 construct: whole, on cells; also called hLILRA2
The assay is described as above. The procedure:
as §1

For the next assay, the target named is T4, human LILRA3 (human, UniProt Q8N6C8 24-439).
T4 construct: whole, on cells; also called hLILRA3; LIRA3
The assay is described as above. The method, then: as §1

Another assay deals with T5, human LILRA4 (human, UniProt P59901 24-499).
T5 construct: whole, on cells; also called hLILRA4
The description is as above. The method, then:
as §1

The next assay deals with T6, human LILRA6 (human, UniProt Q6PI73 24-481).
T6 construct: whole, on cells; also called hLILRA6
The description is as above. The method, then: as §1

The next assay addresses T7, human ILT2 (human, UniProt Q8NHL6 24-650).
T7 construct: whole, on cells; also called hILT2
The description is as above. The procedure: as §1

Another assay deals with T8, human ILT3 (human, UniProt Q8NHJ6 22-448).
T8 construct: whole, on cells; also called hILT3
The description is as above. The method, then: as §1

The next assay deals with T9, human ILT5 (human, UniProt O75022 24-631).
T9 construct: whole, on cells; also called hILT5; LILRB3
The description is as above. The method, then:
as §1

The target in a further assay is T10, human LIR8 (human, UniProt O75023 24-590).
T10 construct: whole, on cells; also called hLIR8
The assay is described as above. The procedure: as §1

Assay [2] deals with T11, rhILT4-Fc (human, UniProt Q8N423-1 22-461).
T11 construct: also called rhILT4-Fc fusion protein with a murine Fc tail; not shown: murine Fc tail
As to the kind of experiment: flow cytometry blocking assay: antibody titrated (12 points) with rhILT4-Fc fixed at 30 µg/ml; rhILT4-Fc bound to HLA-A overexpressing CHO cells read as % Positive; blocked ligand: HLA-A; the IC50 table has no unit, the concentration axis is in ug/mL.

For assay [3], the target named is T11, rhILT4-Fc. Description: flow cytometry blocking assay: antibody titrated (12 points) with rhILT4-Fc fixed at 30 µg/ml; rhILT4-Fc bound to HLA-B overexpressing CHO cells read as % Positive; blocked ligand: HLA-B; the IC50 table has no unit, the concentration axis is in ug/mL.
Assay [4] has as its target T12, hILT4-His-Avi tag (human, UniProt Q8N423 22-459).
T12 construct: also called monomeric human ILT4; extracellular region of hILT4 linked to a His-Avi tag
As to the kind of experiment: SPR Biacore T200, 37 C; antibody captured on protein A/G chip, monomeric hILT4 as analyte. The procedure: (§2) The binding kinetics of the parent and germline reversion mutant anti-hILT4 antibodies (in the context of IgG1.3) were measured via Surface Plasmon Resonance (SPR) using a Biacore® T200 instrument. The assay temperature was 37° C. and the running buffer was PBS pH 7.4 supplemented with 0.05% Tween-20. Allanti-hILT4 antibodies were captured on a CM4 chip with pre-immobilized protein A/G (Pierce Thermo Scientific catalog number 21186). […] Monomeric human ILT4 was injected as analyte. […] The hILT4 used in this experiment, comprising the extracellular region of hILT4 linked to a His-Avi tag, consists of the following amino acid sequence: […]

The target in assay [5] is T12, hILT4-His-Avi tag. Description: SPR Biacore T200, 37 C; antibody captured on protein A/G chip, monomeric hILT4 as analyte; kinetic fit. The method, then: as §2
Assay [6] concerns the target T12, hILT4-His-Avi tag. As to the kind of experiment: SPR Biacore T200, 37 C; antibody captured on protein A/G chip, monomeric hILT4 as analyte; steady state fit. The method, then:
as §2

T12 sequence (Q8N423 other isoform, or with tags, fused parts or gaps): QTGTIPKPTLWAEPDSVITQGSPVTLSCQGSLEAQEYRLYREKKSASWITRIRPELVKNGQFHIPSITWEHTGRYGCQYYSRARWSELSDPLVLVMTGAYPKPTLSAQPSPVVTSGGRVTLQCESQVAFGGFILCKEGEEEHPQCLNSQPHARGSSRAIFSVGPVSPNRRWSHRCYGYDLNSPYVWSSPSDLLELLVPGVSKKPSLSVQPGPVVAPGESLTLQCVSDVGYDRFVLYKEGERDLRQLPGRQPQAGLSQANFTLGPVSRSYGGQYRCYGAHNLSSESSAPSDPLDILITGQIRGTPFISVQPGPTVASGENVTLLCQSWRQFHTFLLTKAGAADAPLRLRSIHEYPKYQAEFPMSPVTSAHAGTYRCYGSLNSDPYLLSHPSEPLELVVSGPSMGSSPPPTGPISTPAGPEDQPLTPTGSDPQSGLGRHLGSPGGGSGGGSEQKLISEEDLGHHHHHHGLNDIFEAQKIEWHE
T11 sequence (Q8N423 other isoform, or with tags, fused parts or gaps): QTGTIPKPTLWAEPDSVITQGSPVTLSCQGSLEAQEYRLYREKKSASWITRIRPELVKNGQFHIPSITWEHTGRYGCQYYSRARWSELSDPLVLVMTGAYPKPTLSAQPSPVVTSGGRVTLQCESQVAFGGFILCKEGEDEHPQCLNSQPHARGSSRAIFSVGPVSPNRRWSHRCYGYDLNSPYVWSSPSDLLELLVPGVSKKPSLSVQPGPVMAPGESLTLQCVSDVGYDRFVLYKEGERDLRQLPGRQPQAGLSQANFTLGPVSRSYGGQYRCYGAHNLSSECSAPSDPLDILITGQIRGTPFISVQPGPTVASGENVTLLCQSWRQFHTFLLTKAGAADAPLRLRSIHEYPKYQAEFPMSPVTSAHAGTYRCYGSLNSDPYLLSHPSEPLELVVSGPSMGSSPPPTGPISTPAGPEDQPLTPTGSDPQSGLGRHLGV
T2 sequence (O75019 17-489): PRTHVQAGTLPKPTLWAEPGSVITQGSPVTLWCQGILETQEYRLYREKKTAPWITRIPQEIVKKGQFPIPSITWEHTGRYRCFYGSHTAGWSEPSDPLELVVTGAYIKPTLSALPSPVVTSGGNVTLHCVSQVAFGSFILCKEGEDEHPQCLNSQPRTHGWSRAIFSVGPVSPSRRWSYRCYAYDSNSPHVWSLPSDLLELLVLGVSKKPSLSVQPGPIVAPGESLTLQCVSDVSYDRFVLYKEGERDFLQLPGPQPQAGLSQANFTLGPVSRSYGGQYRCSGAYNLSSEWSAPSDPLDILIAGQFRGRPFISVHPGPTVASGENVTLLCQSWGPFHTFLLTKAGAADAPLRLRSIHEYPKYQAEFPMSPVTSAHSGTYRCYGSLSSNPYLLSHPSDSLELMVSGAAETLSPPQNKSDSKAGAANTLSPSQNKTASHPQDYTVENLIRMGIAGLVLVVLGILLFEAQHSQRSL
T4 sequence (Q8N6C8 24-439): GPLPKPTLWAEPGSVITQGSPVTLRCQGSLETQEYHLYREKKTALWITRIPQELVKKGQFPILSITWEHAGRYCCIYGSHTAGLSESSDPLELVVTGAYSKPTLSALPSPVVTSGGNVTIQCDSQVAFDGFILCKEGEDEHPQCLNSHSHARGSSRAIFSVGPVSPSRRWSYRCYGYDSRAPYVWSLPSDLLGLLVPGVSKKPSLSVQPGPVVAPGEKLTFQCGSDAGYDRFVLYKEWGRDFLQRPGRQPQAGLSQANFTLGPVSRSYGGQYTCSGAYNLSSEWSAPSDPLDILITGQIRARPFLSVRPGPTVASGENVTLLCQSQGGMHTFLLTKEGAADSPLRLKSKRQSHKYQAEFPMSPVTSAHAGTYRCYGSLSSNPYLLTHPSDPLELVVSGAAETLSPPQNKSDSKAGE
T5 sequence (P59901 24-499): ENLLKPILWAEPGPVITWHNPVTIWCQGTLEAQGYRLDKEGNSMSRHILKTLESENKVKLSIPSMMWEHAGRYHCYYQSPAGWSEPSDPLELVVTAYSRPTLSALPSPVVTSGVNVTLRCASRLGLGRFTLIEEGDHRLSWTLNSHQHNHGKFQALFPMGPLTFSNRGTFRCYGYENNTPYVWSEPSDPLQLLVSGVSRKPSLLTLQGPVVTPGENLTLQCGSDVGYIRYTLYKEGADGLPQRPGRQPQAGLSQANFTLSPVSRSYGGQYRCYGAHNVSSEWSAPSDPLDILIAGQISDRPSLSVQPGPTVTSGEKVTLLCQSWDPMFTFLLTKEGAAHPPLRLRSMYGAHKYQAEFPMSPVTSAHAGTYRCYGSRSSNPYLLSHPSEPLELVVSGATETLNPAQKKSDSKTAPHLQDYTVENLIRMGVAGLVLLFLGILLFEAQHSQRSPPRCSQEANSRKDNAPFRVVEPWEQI
T1 sequence (Q8N423 other isoform, or with tags, fused parts or gaps): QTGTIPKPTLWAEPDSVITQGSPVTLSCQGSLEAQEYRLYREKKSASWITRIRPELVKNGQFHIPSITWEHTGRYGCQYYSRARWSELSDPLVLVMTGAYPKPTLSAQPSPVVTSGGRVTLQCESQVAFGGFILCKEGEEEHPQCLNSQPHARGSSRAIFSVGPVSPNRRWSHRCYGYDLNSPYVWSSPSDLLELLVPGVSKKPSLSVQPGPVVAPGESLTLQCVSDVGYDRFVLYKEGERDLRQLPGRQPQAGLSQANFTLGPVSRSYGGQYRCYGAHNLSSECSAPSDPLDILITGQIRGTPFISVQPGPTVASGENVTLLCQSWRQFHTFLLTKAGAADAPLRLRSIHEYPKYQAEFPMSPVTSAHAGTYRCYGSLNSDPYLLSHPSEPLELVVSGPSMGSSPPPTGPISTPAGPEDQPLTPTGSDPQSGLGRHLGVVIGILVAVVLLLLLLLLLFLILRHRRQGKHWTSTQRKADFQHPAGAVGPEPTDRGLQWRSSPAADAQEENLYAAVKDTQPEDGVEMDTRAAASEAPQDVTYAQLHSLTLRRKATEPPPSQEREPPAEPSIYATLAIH
T6 sequence (Q6PI73 24-481): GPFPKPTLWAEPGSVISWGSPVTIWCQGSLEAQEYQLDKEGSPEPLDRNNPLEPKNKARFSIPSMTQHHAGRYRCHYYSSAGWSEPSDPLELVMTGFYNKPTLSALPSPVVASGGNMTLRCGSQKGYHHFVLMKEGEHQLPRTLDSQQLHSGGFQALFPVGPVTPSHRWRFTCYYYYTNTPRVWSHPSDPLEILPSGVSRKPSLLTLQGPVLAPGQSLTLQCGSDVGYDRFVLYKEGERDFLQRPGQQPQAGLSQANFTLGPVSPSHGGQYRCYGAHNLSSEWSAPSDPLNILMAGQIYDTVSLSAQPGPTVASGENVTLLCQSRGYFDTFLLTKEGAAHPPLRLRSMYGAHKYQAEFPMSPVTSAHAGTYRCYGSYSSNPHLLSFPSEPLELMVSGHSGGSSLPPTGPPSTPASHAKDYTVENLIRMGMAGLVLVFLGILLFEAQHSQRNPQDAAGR
T10 sequence (O75023 24-590): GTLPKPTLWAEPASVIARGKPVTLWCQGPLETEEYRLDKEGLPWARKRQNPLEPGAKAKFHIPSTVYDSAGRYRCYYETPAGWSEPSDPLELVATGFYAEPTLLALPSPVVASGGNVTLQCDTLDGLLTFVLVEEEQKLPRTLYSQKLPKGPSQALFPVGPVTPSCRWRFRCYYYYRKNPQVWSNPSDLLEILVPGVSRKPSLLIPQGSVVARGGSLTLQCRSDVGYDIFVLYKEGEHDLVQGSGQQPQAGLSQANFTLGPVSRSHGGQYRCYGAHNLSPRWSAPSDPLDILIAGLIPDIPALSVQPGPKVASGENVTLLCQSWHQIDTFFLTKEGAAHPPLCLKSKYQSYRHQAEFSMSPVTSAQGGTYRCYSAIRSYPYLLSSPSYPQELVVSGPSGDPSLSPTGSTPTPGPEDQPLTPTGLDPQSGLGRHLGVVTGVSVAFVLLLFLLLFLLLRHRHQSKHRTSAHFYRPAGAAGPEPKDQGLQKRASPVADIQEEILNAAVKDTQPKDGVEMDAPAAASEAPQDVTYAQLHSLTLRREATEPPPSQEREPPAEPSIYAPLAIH
T3 sequence (Q8N149 24-483): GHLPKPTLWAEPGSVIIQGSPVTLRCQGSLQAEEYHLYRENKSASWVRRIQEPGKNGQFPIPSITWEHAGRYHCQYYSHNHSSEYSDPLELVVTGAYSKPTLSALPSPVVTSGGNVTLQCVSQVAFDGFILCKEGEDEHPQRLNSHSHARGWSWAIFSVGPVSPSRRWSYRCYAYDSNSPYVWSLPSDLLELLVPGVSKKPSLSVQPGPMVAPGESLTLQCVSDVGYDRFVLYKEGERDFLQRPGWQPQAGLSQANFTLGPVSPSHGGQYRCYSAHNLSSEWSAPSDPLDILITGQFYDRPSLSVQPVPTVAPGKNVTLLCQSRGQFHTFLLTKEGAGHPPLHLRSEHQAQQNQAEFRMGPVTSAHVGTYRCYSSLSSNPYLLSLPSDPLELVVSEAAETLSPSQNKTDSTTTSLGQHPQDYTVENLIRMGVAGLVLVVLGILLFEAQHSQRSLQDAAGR
T7 sequence (Q8NHL6 24-650): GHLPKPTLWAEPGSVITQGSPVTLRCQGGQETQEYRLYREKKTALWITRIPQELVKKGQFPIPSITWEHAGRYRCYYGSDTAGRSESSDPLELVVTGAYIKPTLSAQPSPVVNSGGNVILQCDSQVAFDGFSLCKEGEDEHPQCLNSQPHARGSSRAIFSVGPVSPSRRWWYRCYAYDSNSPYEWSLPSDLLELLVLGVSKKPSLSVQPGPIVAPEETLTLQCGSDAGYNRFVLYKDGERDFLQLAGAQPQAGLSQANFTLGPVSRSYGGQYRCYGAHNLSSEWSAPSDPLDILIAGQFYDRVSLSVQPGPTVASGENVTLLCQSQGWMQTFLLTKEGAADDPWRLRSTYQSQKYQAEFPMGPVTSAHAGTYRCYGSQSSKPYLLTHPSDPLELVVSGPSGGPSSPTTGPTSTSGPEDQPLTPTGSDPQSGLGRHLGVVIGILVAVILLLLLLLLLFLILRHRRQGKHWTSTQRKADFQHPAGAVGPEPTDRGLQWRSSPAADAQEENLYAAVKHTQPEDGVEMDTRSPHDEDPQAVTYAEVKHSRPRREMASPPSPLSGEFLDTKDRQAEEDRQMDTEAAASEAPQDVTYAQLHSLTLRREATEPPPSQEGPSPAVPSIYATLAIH

B1: 21D9.IgG1.1f (antibody)
heavy: EGQLLESGGDLVQPGGSLRLSCATSGFTFSNYAMNWVRQAPGKGLEWISVISVSGGSTYYADSVKGRFTISRDNSKNTLYLQMNSLRAEDTAVYYCAKDYYYDSGSYYDSFFDYWGQGTLVTVSSASTKGPSVFPLAPSSKSTSGGTAALGCLVKDYFPEPVTVSWNSGALTSGVHTFPAVLQSSGLYSLSSVVTVPSSSLGTQTYICNVNHKPSNTKVDKRVEPKSCDKTHTCPPCPAPEAEGAPSVFLFPPKPKDTLMISRTPEVTCVVVDVSHEDPEVKFNWYVDGVEVHNAKTKPREEQYNSTYRVVSVLTVLHQDWLNGKEYKCKVSNKALPSSIEKTISKAKGQPREPQVYTLPPSREEMTKNQVSLTCLVKGFYPSDIAVEWESNGQPENNYKTTPPVLDSDGSFFLYSKLTVDKSRWQQGNVFSCSVMHEALHNHYTQKSLSLSPGK
light: not shown
notes: Parent 21D9 in IgG1.1f (L234A, L235E, G237A, A330S, P331S); also called ILT4.6.IgG1.1
Regarding B1, the EC50 in [1] was found to be 0.046 µg/mL. The binding result in the assay with human LILRA1, with human LILRA2, with human LILRA3, with human LILRA4, with human LILRA6 and with human ILT2 was “no binding (tested: 20 µg/ml)” each time. Besides, the binding result in the assay with human ILT3, with human ILT5 and in the assay with human LIR8 was “no binding (tested: 20 µg/ml)” each time. In addition, the IC50 in the assay with rhILT4-Fc [2] turned out to be 2.88 µg/mL; in the assay with rhILT4-Fc [3], 0.918 µg/mL.

B2: 10F10.1.IgG1.3 (antibody, V domains shown)
VH: QVQLVESGGGVVQPGRSLRLSCAASGFTFSSYAMHWVRQAPGKGLEWVAIISYDEYNKYYADSVKGRFTISRDNSKNTLYLQMNSLRAEDTAVYYCAREWVGIRYWGQGTLVTVSS
VL: AIQLTQSPSSLSASVGDRVTITCRASQGISSALAWYQQKPGKAPKLLIYDASSLESGVPSRFTGSGSGTDFTLTISSLQPEDFATYYCQQFNSYPITFGQGTRLEIKR
notes: Germline reversion mutant of 10F10 (light chain F36Y); heavy chain of 10F10; IgG1.3; also called 10F10.VK-F36Y.IgG1.3
B2: the “fold loss in overall affinity relative to parent 10F10” value with hILT4-His-Avi tag [4] is approximately 3 fold. In the assay with hILT4-His-Avi tag [5], this molecule came in with a Kd of 46 nM, an app. act. of 94%, a koff of approximately 0.07 s⁻¹ and a kon of 1.5e+06 M⁻¹ s⁻¹. In the assay with hILT4-His-Avi tag [6], this molecule showed a Kd of 56 nM and an app. act. of 88%.

B3: 10F10.3.IgG1.3 (antibody, V domains shown)
VH: QVQLVESGGGVVQPGRSLRLSCAASGFTFSSYAMHWVRQAPGKGLEWVAIISYDEYNKYYADSVKGRFTISRDNSKNTLYLQMNSLRAEDTAVYYCAREWVGIRYWGQGTLVTVSS
VL: AIQLTQSPSSLSASVGDRVTITCRASQGISSALAWYQQKPGKAPKLLIYDASSLESGVPSRFSGSGSGTDFTLTISSLQPEDFATYYCQQFNSYPITFGQGTRLEIKR
notes: Germline reversion mutant of 10F10 (light chain F36Y and T63S); heavy chain of 10F10; IgG1.3; also called ILT4.11.IgG1.3; 10F10.VK-F36Y/T63S.IgG1.3
For the molecule B3, in the assay with hILT4-His-Avi tag [4], the “fold loss in overall affinity relative to parent 10F10” value was approximately 3 fold. In the assay with hILT4-His-Avi tag [5], this molecule registered a Kd of 47 nM, an app. act. of 123%, a koff of approximately 0.08 s⁻¹ and a kon of 1.7e+06 M⁻¹ s⁻¹. Besides, in the assay with hILT4-His-Avi tag [6], binding was put at a Kd of 52 nM and the app. act. stood at 115%.
